# B1: TG10: Antibody, HC SEQ ID NO: 3, LC SEQ ID NO: 12; primer mutations in ADI-45379 reverted to germline (antibody, V domains shown)
# VH: EVQLVESGGGLVQPGGSLRLSCAVSGFPFSSYWMSWVRQAPGKGLEWVANIKEDGSEKYYVDSVKGRFTISRDNAKNSLYLQMNSLRAEDTAVYYCATDPDVGLSDSWGQGTLVTVSS
# VL: EIVLTQSPGTLSLSPGDRATHSCRASQSVSRSYLAWYQQKPGQTPRLFIYGASNRATGIPDRFSGSGSGTYFTLTISRLEPEDFAVYYCQQYDSAPDTFGQGTRLEIK
# modifications: TG10 Heavy Chain Variable Region; TG10 Light Chain Variable Region
# notes: primer mutations in ADI-45379 reverted to germline
# What was measured:
# [1] = tested on: Staphylococcus epidermidis (ATCC 35984) suspension culture; assay: Labeled antibody incubation with suspension cultures of microorganisms; format: cell-based; settings: Alexa Fluor 488 labeled TG10; data not shown
# [2] = molecular target: PNAG 1 (glucosamine tetrasaccharide with an N-acetyl glucosamine at the reducing end); assay: Glycan microarray apparent KD; format: binding; settings: PNAG 1 conjugate on the microarray
# Procedure: (§1) Neoglycoprotein (NGP) microarray fabrication was performed as follows. Several NGP microarrays were constructed as previously described. Two large arrays (8 duplicate arrays per slide) composed of 815 and 870 neoglycoproteins, glycoproteins, glycopeptide conjugates, and controls were constructed and used for the experiments in this report. Additionally, a PNAG-focused array (16 duplicates per slide) with 49 array components was fabricated and used to determine apparent KD values. Array component parent stocks were diluted to 125-200 μg/mL into print buffer (1×PBS buffer with 2.5% (v/v) glycerol, 0.0005% (v/v) Triton-X 100, 0.0005 μg/mL soluble print dye 0.05 μg/mL Atto 532 (Sigma 06699). Formulated components were printed in duplicate onto 2D-Epoxy functionalized glass slides (Poly-An #104-00-221) or SuperEpoxy 2 microarray slides (ArrayIt) using an Arrayit NanoPrint LM60 arrayer at 60% humidity. Following the print, slides were scanned in a microarray fluorescence scanner (Innopsys, InnoScan 1100 AL) to validate that array components were successfully deposited onto the slide surface. […]
# (§2) Antibody selectivity and apparent KD were determined using a NGP microarray. […] Selectivity and affinity of most mAbs were measured on the full array. […] Raw data was analyzed using GenePix 7.0 software as previously described. […]
# [3] = molecular target: PNAG 16 (glucosamine tetrasaccharide with an N-acetyl glucosamine at the terminal end); assay: Glycan microarray apparent KD; format: binding; settings: PNAG 16 conjugate on the microarray
# Procedure: as §1, §2
# [4] = tested on: PNAG conjugates on the array (dPNAG, PNAG and intermediate levels of deacetylation); assay: Neoglycoprotein (glycan) microarray binding, 816-component array
# S. epidermidis biofilms = assay: S. epidermidis biofilm staining, confocal microscopy; format: cell-based, Staphylococcus epidermidis; settings: fluorescently labeled antibodies at 5 μg/ml, fixed 20 hr biofilms
# Procedure: For antibody labeling, recombinantly expressed antibodies were labeled with fluorescent dyes using Invitrogen antibody dye labeling kits. Concentration and labeling efficiency was confirmed using nanodrop. For S. epidermidis biofilm formation and confocal microscopy, Staphylococcus epidermidis (Winslow and Winslow) Evans ATCC 14990 was resuspended and cultured on tryptic soy broth agar plates according to ATCC recommended procedures. Single colonies were picked into 5 mL Tryptic Soy Broth (TSB) supplemented with 0.25% glucose (BD™ TSB) and bacteria were cultured overnight at 37 C with shaking (200 RPM). The overnight culture was diluted 1:100 into aerated TSB26. 400 μl (microliters) of the aerated culture was pipetted into 8-well chambered coverglass lab-tek II system suitable for confocal microscopy. Biofilms were allowed to mature for 20 hrs @37C without agitation. Mature films were washed 2×500 μl PBS to remove planktonic bacteria. The films were fixed in 4% paraformaldehyde in PBS for 30 minutes, washed 2×500 μl PBS and stained with fluorescently labeled antibodies diluted to 5 μg/ml. The labeled films were then washed 2×500 μl PBS and then stained for 10 minutes with Hoechst stain @ 10 μg/ml. The films were washed a final time and kept under PBS for imaging. […]
# S. aureus ATCC 29213 = assay: Passive immunization, S. aureus lethal dose challenge in a murine model; format: in vivo, Balb/C mice; settings: 200 μg mAb intraperitoneally one hour before 200 million cfu via tail vein
# Procedure: An in vivo study was performed to evaluate the prophylactic efficacy of TG10 against a S. aureus lethal dose challenge in a murine model of infection. TG10 and F598 were evaluated as monotherapies and as a mAb cocktail. […] The combination provided 90% survival.
# Balb/C mice aged 12 weeks (n=10/group) were passively immunized with 200 μg F598, 200μ g TG10, or 100μ g F598+100μ g TG10 in 100 μl PBS intraperitoneally. 100 μl PBS was injected intraperitoneally in the negative control group (n=5). One hour later, 200 million cfu S. aureus ATCC 29213 cells were administrated via tail vein. Mice condition was monitored. A mouse unable to move or which lost more than 20% body mass was euthanized. Survival was better in all three groups when compared to the PBS control arm.
# [5] = molecular target: PNAG 0 (fully deacetylated glucosamine pentasaccharide conjugate); assay: Glycan microarray binding / apparent KD; settings: PNAG 0 conjugate on the microarray
# Procedure: Neoglycoprotein (NGP) microarray fabrication was performed as follows. Several NGP microarrays were constructed as previously described. Two large arrays (8 duplicate arrays per slide) composed of 815 and 870 neoglycoproteins, glycoproteins, glycopeptide conjugates, and controls were constructed and used for the experiments in this report. Additionally, a PNAG-focused array (16 duplicates per slide) with 49 array components was fabricated and used to determine apparent KD values. Array component parent stocks were diluted to 125-200 μg/mL into print buffer (1×PBS buffer with 2.5% (v/v) glycerol, 0.0005% (v/v) Triton-X 100, 0.0005 μg/mL soluble print dye 0.05 μg/mL Atto 532 (Sigma 06699). Formulated components were printed in duplicate onto 2D-Epoxy functionalized glass slides (Poly-An #104-00-221) or SuperEpoxy 2 microarray slides (ArrayIt) using an Arrayit NanoPrint LM60 arrayer at 60% humidity. Following the print, slides were scanned in a microarray fluorescence scanner (Innopsys, InnoScan 1100 AL) to validate that array components were successfully deposited onto the slide surface. Binding profiles for a representative set of lectins and antibodies were used as QC for each printed microarray batch. The printed NGP microarrays were stored under vacuum at −20° C.
# Antibody selectivity and apparent KD were determined using a NGP microarray. A pre-assay scan was performed to control for missing features. Selectivity and affinity of most mAbs were measured on the full array. A focused array was used to acquire an apparent KD measurement. A slide module (8 well for full array and 16-well for focused array) was mounted onto each slide and blocking buffer (3% BSA in PBS, pH 7.4) was applied to each well of the array. Blocking was performed overnight at 4° C. mAbs were serial diluted in binding buffer (1% BSA in PBST, pH 7.4). Following the block, wells were washed 4× with wash buffer (PBST, PBS with 0.05% tween-20). Primary mAb incubation was performed for 2.5 hours at 37° C. The wells were washed 5× with wash buffer. A CY3-labeled secondary antibody specific for the Fc portion of human IgG was diluted 500 fold into binding buffer and added to each array well (Jackson ImmunoResearch, 109-165-098). Secondary mAb incubation was performed for 1.5 hours at 37° C. Wells were washed 5× with wash buffer. Slides were removed from the slide module and submerged in wash buffer for 5 minutes. Washed slides were dried by centrifugation @ 1000×g in a centrifuge quipped with a swing bucket rotor. Fluorescent scans were obtained at multiple PMT values to maximize dynamic range. Raw data was analyzed using GenePix 7.0 software as previously described. Selectivity profiles and apparent KD curves were plotted in excel and Graphpad Prism. Apparent Kos were determined using one-site specific binding algorithm in Graphpad Prism.
# [6] = tested on: S. aureus ATCC 29213 cells; assay: Binding to planktonic S. aureus, fluorescence microscopy; format: cell-based; settings: labeled mAb, 20 μg/mL, fixed planktonic cells
# Procedure: (§3) TG10 binding was evaluated in the PNAG producing strains of S. aureus ATCC 29213 and Xen 36 following overnight culturing with shaking in TSB and TB, respectively. The cells were pelleted, fixed in 4% paraformaldehyde and coated on glass chips. The plated cells were extensively washed followed by incubation with 488-labeled TG10 or 488-labeled F598 prior fluorescent microscopy. For evaluating TG10 and F598 binding with S. aureus, S. aureus […] and Xen 36 were grown in TSB and LB overnight, respectively. Cells were pelleted and fixed in 4% paraformaldehyde. Cells were calibrated to OD 0.5. 100 μl suspension were used for each sample. Each sample were pelleted and resuspended in 20 μg/mL mAb TG10, F598 or both. After shaking for 2 hours under ambient temperature, cells were pelleted, washed and transferred to glass chips and allowed to air dry. A cover slide was mounted via anti-fade media.
# S. aureus Xen 36 cells = assay: as above; format: cell-based; settings: labeled mAb, 20 μg/mL, fixed planktonic cells
# Procedure: as §3
molecule,measurement,setting,value
B1,fluorescent microscopy of spun-down culture,[1],strong fluorescent signal
same,Kd,[2],0.0115 µM
same,Kd,[3],0.019 µM
same,selectivity among PNAG glycoconjugates on the array,[4]; 816-component array,excellent selectivity for the highly deacetylated PNAG conjugates PNAG 0 and PNAG 1
same,PNAG Binding on Array,[4]; ability to bind both dPNAG and PNAG and intermediate levels of deacetylation,Yes
same,localization of labeled antibody within the biofilm,S. epidermidis biofilms,isolated to core cells within the microcolonies
same,survival compared to the PBS control group,S. aureus ATCC 29213,increased survival
same,Kd,[5],0.0083 µM
same,apparent KD,[5]; given in mass concentration,1.25 mg/L
same,binding to cells,[6],bound
same,binding to cells,S. aureus Xen 36 cells,bound

# Source: patent US20260015434A1, “ANTIBODY MATERIALS AND METHODS TARGETING MICROBIAL POLYSACCHARIDES” (priority 2022, published 2026)
